{"source": "patent US20250109177A1", "about": "“EVOLVED PROTEIN DEGRONS” (The Broad Institute, Inc., priority 2022, published 2025)", "key": {"[1]": {"system": "CRBN C-terminal domain (CTD)", "assay": "CRBN-CTD MG-PACE circuit transcriptional activation (luminescence)", "type": "cell-based, human", "settings": "at 50 μM PT-179"}, "[2]": {"system": "degron-tagged eGFP", "sequence (Q96SW2 24-442 limits assumed)": "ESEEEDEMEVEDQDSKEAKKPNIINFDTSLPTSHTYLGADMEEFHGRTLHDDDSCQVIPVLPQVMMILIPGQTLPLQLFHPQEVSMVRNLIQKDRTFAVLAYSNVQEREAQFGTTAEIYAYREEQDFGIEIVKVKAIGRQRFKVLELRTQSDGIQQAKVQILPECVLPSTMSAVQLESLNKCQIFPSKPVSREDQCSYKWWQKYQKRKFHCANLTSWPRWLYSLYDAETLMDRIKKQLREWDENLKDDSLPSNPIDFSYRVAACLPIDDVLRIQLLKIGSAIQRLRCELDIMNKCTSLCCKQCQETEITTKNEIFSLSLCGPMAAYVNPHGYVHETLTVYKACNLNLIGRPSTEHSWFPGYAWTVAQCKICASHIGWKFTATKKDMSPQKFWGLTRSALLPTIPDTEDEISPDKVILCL", "assay": "Flow-based degradation assay, Degron-eGFP-IRES-mCherry in HEK293T cells", "type": "cell-based, human", "settings": "HEK293T, overnight PT-179 treatment", "protocol": "A flow-based degradation assay was then performed using a stably transduced Degron-eGFP-IRES-mCherry construct in HEK 293T cells to determine the ability of the evolved degrons to […] (see FIG. 7). Concentration of PT-179 is shown on the x-axis. Degrons indicated in the key were fused to the N-terminus of eGFP allowing measurement of eGFP:mCherry ratios for assessing degradation.\nTo characterize the evolved degrons, stable HEK293T cell lines expressing degron-tagged eGFP were generated (FIG. 19A). […] The final variant, SD36, potently degraded GFP in response to PT-179 (DC50=14 nM)."}}, "data": [{"molecule": "SD20: Evolved degron SEQ ID NO: 21: S10R E14D P16L E20K Q28E E42V P44T F45V R57K D58R A59C L60F *61VI (protein) FNVLMVHKRRHTGDRLLQCKICGFTCREKGNLLRHIKLHTGVKTVKCHLCNYACQRKRCFVI", "values": [{"measurement": "luciferase expression, activation", "setting": "[1]", "value": 24, "unit": "fold"}, {"measurement": "GFP degradation in response to PT-179", "setting": "[2]", "value": "did not trigger GFP degradation"}]}]}
